# Several values for one entry are separate records, joined by “and”; a condition that tells them apart may be missing. Equal values may be shown once.
# Legend:
# [1] = target: human CLPB NBD-only variant (N-terminal ANK domain truncated) (human) (UniProt Q9H078); assay: cryo-EM 2D classification; NBD^WT-AMPPNP dataset
# [2] = target: human CLPB NBD-only variant with E425Q (human) (UniProt Q9H078); assay: cryo-EM structure; NBD^E425Q-ATP dataset; self-assembly into hexamer, heptamer and nonamer
# [3] = target: human CLPB isoform 1 (human); assay: negative staining electron microscopy + cryo-EM 2D classification; CLPB^isoform1-AMPPNP dataset, protein purified from E. coli
# [4] = target: the molecule itself; assay: cryo-EM 2D classification; CLPB-ATPγS dataset, control without casein
# [5] = target: the molecule itself; assay: SEC; purification of CLPB, CLPB^Δ201–232 and CLPB^isoform1 complexes by size-exclusion chromatography (S7C–S7E Fig)
# [6] = target: the molecule itself; assay: SEC + other: negative staining electron microscopy; proteins purified from E. coli; Superose 6 Increase 10/300 GL, 20 mM HEPES-KOH pH 6.8, 300 mM KCl, 5 mM MgCl2; with or without AMPPNP; peak fraction seen by nsEM
# [7] = target: the molecule itself; assay: cryo-EM structure; CLPB^E425Q-ATP dataset; sample treated with ATP and about 1 mM BS3, 0.5 mM CHAPSO added; self-assembly of the mutant
molecule,measurement,setting,value
human CLPB NBD-only variant (N-terminal ANK domain truncated) (from UniProt Q9H078-2 1-677) (domain or fragment),stoichiometry N,[1],6 and 7
human CLPB NBD-only variant with E425Q (from UniProt Q9H078-2 1-677) (domain or fragment),stoichiometry N,[2],6 and 7 and 9
human CLPB isoform 1 (enzyme),stoichiometry N,[3],14
"human CLPB (isoform 2), construct CLPB-N127, wild type (enzyme, UniProt Q9H078-2 127-677, looked up, human CLPB, splicing isoform 2, starting from the PARL cleavage site (between C126 and Y127) to the C-terminus; Double-heptamer (tetradecamer) in the apo state; about 1 mM BS3 was added to the samples for cryo-EM; also called SKD3; WT CLPB; source: E. coli Transetta (DE3), purified (ammonium sulfate, Mono Q, TEV cleavage, Superose 6 SEC); not shown: His×6-SUMO, N-terminal, cleaved; copies: 14) YSKSPSNKDAALLEAARANNMQEVSRLLSEGADVNAKHRLGWTALMVAAINRNNSVVQVLLAAGADPNLGDDFSSVYKTAKEQGIHSLEVLITREDDFNNRLNNRASFKGCTALHYAVLADDYRTVKELLDGGANPLQRNEMGHTPLDYAREGEVMKLLRTSEAKYQEKQRKREAEERRRFPLEQRLKEHIIGQESAIATVGAAIRRKENGWYDEEHPLVFLFLGSSGIGKTELAKQTAKYMHKDAKKGFIRLDMSEFQERHEVAKFIGSPPGYVGHEEGGQLTKKLKQCPNAVVLFDEVDKAHPDVLTIMLQLFDEGRLTDGKGKTIDCKDAIFIMTSNVASDEIAQHALQLRQEALEMSRNRIAENLGDVQISDKITISKNFKENVIRPILKAHFRRDEFLGRINEIVYFLPFCHSELIQLVNKELNFWAKRAKQRHNITLLWDREVADVLVDGYNVHYGARSIKHEVERRVVNQLAAAYEQDLLPGGCTLRITVEDSDKQLLKSPELPSPQAEKRLPKLRLEIIDKDSKTRRLDIRAPLHPEKVCNTI",stoichiometry N,[4],14
"human CLPB (isoform 2) with the ANK insertion deleted (enzyme, UniProt Q9H078-2 127-677, looked up, human CLPB isoform 2 (CLPB-N127) with the insertion between AM2 and AM3 completely deleted; source: E. coli, purified; not shown: His×6-SUMO, N-terminal, cleaved) YSKSPSNKDAALLEAARANNMQEVSRLLSEGADVNAKHRLGWTALMVAAINRNNSVVQVLLAAGADPNLGDDFSSFKGCTALHYAVLADDYRTVKELLDGGANPLQRNEMGHTPLDYAREGEVMKLLRTSEAKYQEKQRKREAEERRRFPLEQRLKEHIIGQESAIATVGAAIRRKENGWYDEEHPLVFLFLGSSGIGKTELAKQTAKYMHKDAKKGFIRLDMSEFQERHEVAKFIGSPPGYVGHEEGGQLTKKLKQCPNAVVLFDEVDKAHPDVLTIMLQLFDEGRLTDGKGKTIDCKDAIFIMTSNVASDEIAQHALQLRQEALEMSRNRIAENLGDVQISDKITISKNFKENVIRPILKAHFRRDEFLGRINEIVYFLPFCHSELIQLVNKELNFWAKRAKQRHNITLLWDREVADVLVDGYNVHYGARSIKHEVERRVVNQLAAAYEQDLLPGGCTLRITVEDSDKQLLKSPELPSPQAEKRLPKLRLEIIDKDSKTRRLDIRAPLHPEKVCNTI",binding result,[5],binds
"human CLPB (isoform 2) R178E (enzyme, UniProt Q9H078-2 127-677, looked up, human CLPB isoform 2 (CLPB-N127) with R178E; also called CLPB^R178E; source: E. coli, purified; not shown: His×6-SUMO, N-terminal, cleaved) YSKSPSNKDAALLEAARANNMQEVSRLLSEGADVNAKHRLGWTALMVAAINENNSVVQVLLAAGADPNLGDDFSSVYKTAKEQGIHSLEVLITREDDFNNRLNNRASFKGCTALHYAVLADDYRTVKELLDGGANPLQRNEMGHTPLDYAREGEVMKLLRTSEAKYQEKQRKREAEERRRFPLEQRLKEHIIGQESAIATVGAAIRRKENGWYDEEHPLVFLFLGSSGIGKTELAKQTAKYMHKDAKKGFIRLDMSEFQERHEVAKFIGSPPGYVGHEEGGQLTKKLKQCPNAVVLFDEVDKAHPDVLTIMLQLFDEGRLTDGKGKTIDCKDAIFIMTSNVASDEIAQHALQLRQEALEMSRNRIAENLGDVQISDKITISKNFKENVIRPILKAHFRRDEFLGRINEIVYFLPFCHSELIQLVNKELNFWAKRAKQRHNITLLWDREVADVLVDGYNVHYGARSIKHEVERRVVNQLAAAYEQDLLPGGCTLRITVEDSDKQLLKSPELPSPQAEKRLPKLRLEIIDKDSKTRRLDIRAPLHPEKVCNTI",binding result,[6],binds
"human CLPB (isoform 2) R227E (enzyme, UniProt Q9H078-2 127-677, looked up, human CLPB isoform 2 (CLPB-N127) with R227E; also called CLPB^R227E; source: E. coli, purified; not shown: His×6-SUMO, N-terminal, cleaved) YSKSPSNKDAALLEAARANNMQEVSRLLSEGADVNAKHRLGWTALMVAAINRNNSVVQVLLAAGADPNLGDDFSSVYKTAKEQGIHSLEVLITREDDFNNELNNRASFKGCTALHYAVLADDYRTVKELLDGGANPLQRNEMGHTPLDYAREGEVMKLLRTSEAKYQEKQRKREAEERRRFPLEQRLKEHIIGQESAIATVGAAIRRKENGWYDEEHPLVFLFLGSSGIGKTELAKQTAKYMHKDAKKGFIRLDMSEFQERHEVAKFIGSPPGYVGHEEGGQLTKKLKQCPNAVVLFDEVDKAHPDVLTIMLQLFDEGRLTDGKGKTIDCKDAIFIMTSNVASDEIAQHALQLRQEALEMSRNRIAENLGDVQISDKITISKNFKENVIRPILKAHFRRDEFLGRINEIVYFLPFCHSELIQLVNKELNFWAKRAKQRHNITLLWDREVADVLVDGYNVHYGARSIKHEVERRVVNQLAAAYEQDLLPGGCTLRITVEDSDKQLLKSPELPSPQAEKRLPKLRLEIIDKDSKTRRLDIRAPLHPEKVCNTI",binding result,[6],binds
"human CLPB (isoform 2, CLPB-N127) Walker B mutant E425Q (enzyme, UniProt Q9H078-2 127-677, looked up, human CLPB isoform 2 from the PARL cleavage site (Y127) to the C-terminus, with E425Q; Double-hexamer (dodecamer) with a co-purified endogenous peptide in the central channel; also called CLPB^E425Q; source: E. coli, purified as the wild type; not shown: His×6-SUMO, N-terminal, cleaved; copies: 12) YSKSPSNKDAALLEAARANNMQEVSRLLSEGADVNAKHRLGWTALMVAAINRNNSVVQVLLAAGADPNLGDDFSSVYKTAKEQGIHSLEVLITREDDFNNRLNNRASFKGCTALHYAVLADDYRTVKELLDGGANPLQRNEMGHTPLDYAREGEVMKLLRTSEAKYQEKQRKREAEERRRFPLEQRLKEHIIGQESAIATVGAAIRRKENGWYDEEHPLVFLFLGSSGIGKTELAKQTAKYMHKDAKKGFIRLDMSEFQERHEVAKFIGSPPGYVGHEEGGQLTKKLKQCPNAVVLFDQVDKAHPDVLTIMLQLFDEGRLTDGKGKTIDCKDAIFIMTSNVASDEIAQHALQLRQEALEMSRNRIAENLGDVQISDKITISKNFKENVIRPILKAHFRRDEFLGRINEIVYFLPFCHSELIQLVNKELNFWAKRAKQRHNITLLWDREVADVLVDGYNVHYGARSIKHEVERRVVNQLAAAYEQDLLPGGCTLRITVEDSDKQLLKSPELPSPQAEKRLPKLRLEIIDKDSKTRRLDIRAPLHPEKVCNTI",stoichiometry N,[7],12
